Source: article PMC10563079 (Molecules, 2023)
One block for each molecule: values may come before it. Bridge positions count the residues as written; N and C are the ends. Ends that are not written are not given here. Peptide text beside a SMILES is read from it.

Experiments:
[1] = target: T1, full-length PHGDH (1-533) (Homo sapiens, UniProt O43175); test: full-length PHGDH enzyme activity assay (NADH fluorescence); type: biochemical; conditions: read-out: IC50 value (μM), full-length PHGDH activity
T1 construct: the full-length PHGDH (1-533); made in house
T1 sequence (O43175 1-533): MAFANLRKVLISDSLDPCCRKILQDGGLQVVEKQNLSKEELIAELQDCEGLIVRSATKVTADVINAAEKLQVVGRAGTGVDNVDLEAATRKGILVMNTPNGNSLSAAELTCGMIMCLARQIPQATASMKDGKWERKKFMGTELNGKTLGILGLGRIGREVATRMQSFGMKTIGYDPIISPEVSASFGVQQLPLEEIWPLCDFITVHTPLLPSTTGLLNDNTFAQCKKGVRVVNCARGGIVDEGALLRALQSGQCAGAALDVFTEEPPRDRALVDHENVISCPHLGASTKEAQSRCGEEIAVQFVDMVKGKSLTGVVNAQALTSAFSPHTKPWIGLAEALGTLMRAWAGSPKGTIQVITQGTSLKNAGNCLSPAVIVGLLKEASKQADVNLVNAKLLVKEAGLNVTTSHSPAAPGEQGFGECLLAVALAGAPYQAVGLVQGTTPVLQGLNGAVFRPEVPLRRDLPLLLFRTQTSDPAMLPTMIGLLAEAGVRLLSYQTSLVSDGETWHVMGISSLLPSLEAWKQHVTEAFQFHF
Method: (§1) PHGDH activity in the presence of peptides was measured in 96-well plates (100 μL per well) at 25 °C, through monitoring the NADH fluorescence (excitation at 360 nm and emission at 460 nm) over time. PAST1 and its substrate glutamate were also included in order to prevent product inhibition. In the enzyme assays, protein expression and purification, including the truncated version of PHGDH (sPHGDH, 1-307), the full-length PHGDH (1-533), and PAST1, were carried out as described in our previous papers. To evaluate the effects of peptides on enzyme activity, the peptides were pre-incubated with enzyme samples (sPHGDH 453.3 nM or PHGDH 30.9 nM) in the assay buffer (HEPES 50 mM, pH 7.5, 10 mM MgCl2, and 1 mM EDTA) for 12 h. Then, 1.98 μM PAST1, 1 mM NAD^+, and 30 mM glutamate were added and pre-incubated for 10 min before initiating the enzyme reaction via the addition of the substrate (1 mM 3-PG). Fluorescence signals were recorded for 3 min with the kinetics-reading mode of the Biotek plate reader (Synergy). IC50 values were obtained through fitting the data using a three-parameter Hill model of the graph of log dose against the percentage inhibition from three repeated experiments. For those peptides containing two disulfide bonds, a second step of oxidation reaction was carried out to generate the second disulfide pair. […] The purified Acm-protected peptide was then treated with iodine (I2, 1 wt% in MeOH), dropwise under acidic conditions until the solution became brown.

sPHGDH (1-307) = target: T2, sPHGDH (1-307) (Homo sapiens, UniProt O43175); test: sPHGDH enzyme activity assay (NADH fluorescence); type: biochemical; conditions: sPHGDH; for Inhibition Rate (%): peptide concentration of 50 µM
T2 construct: the truncated version of PHGDH (sPHGDH, 1-307); made in house
T2 sequence (O43175 1-307): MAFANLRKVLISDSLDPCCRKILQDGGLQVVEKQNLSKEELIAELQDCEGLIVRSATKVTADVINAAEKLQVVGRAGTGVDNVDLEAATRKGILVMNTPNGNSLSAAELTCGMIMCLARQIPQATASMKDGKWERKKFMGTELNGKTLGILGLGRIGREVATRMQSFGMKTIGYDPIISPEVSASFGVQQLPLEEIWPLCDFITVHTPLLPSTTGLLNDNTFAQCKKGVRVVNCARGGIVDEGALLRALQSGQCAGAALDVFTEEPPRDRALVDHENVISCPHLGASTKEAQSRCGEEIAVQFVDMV
Method: as §1

[2] = target: truncated version of PHGDH (sPHGDH, 1-307) (human) (UniProt O43175)

Molecule: CSCC[C@@H]1NC(=O)[C@H](CO)NC(=O)[C@H](CC(C)C)NC(=O)[C@H]([C@@H](C)O)NC(=O)[C@H](C)NC(=O)[C@H](CCC(N)=O)NC(=O)[C@@H]2CCCN2C(=O)[C@H]([C@@H](C)O)NC(=O)[C@@H](NC(C)=O)CSSC[C@@H](C(=O)O)NC(=O)[C@H](CCCCN)NC(=O)[C@H](CCCCN)NC(=O)[C@H](CCC(=O)O)NC(=O)[C@H](CCC(=O)O)NC(=O)[C@H](Cc2c[nH]c3ccccc23)NC(=O)[C@H](CCCCN)NC(=O)CNC(=O)[C@H](CC(=O)O)NC(=O)[C@H](CCCCN)NC1=O [Cyc1-2, C1TPQA TLSMK DGKWE EKKC19] (Ac-CTPQATLSMKDGKWEEKKC-OH; disulfide 1-19)
- IC50 [1]: 20.1 ± 2.6 µM

Molecule: CSCC[C@@H]1NC(=O)[C@H](CO)NC(=O)[C@H](C)NC(=O)[C@H]([C@@H](C)O)NC(=O)[C@H](C)NC(=O)[C@H](CCC(N)=O)NC(=O)[C@@H]2CCCN2C(=O)[C@H]([C@@H](C)O)NC(=O)[C@@H](NC(C)=O)CSSC[C@@H](C(=O)O)NC(=O)[C@H](CCCCN)NC(=O)[C@H](CCCCN)NC(=O)[C@H](Cc2c[nH]c3ccccc23)NC(=O)[C@H](CCC(=O)O)NC(=O)[C@H](Cc2c[nH]c3ccccc23)NC(=O)[C@H](CCCCN)NC(=O)CNC(=O)[C@H](CC(=O)O)NC(=O)[C@H](CC(C)C)NC1=O [Cyc1-5, C1TPQA TASML DGKWE WKKC19] (Ac-CTPQATASMLDGKWEWKKC-OH; disulfide 1-19)
- IC50 (sPHGDH (1-307); 12 h pre-incubation, read-out: IC50 Value): 13.4 ± 2 µM
- IC50 [1]: 37.1 ± 1.7 µM

Molecule: CSCC[C@@H]1NC(=O)[C@H](CO)NC(=O)[C@H](C)NC(=O)[C@H]([C@@H](C)O)NC(=O)[C@H](C)NC(=O)[C@H](CCC(N)=O)NC(=O)[C@@H]2CCCN2C(=O)[C@H]([C@@H](C)O)NC(=O)[C@@H](NC(C)=O)CSSC[C@@H](C(=O)O)NC(=O)[C@H](CCCCN)NC(=O)[C@H](CCCCN)NC(=O)[C@H](CCC(=O)O)NC(=O)[C@H](CCC(N)=O)NC(=O)[C@H](Cc2c[nH]c3ccccc23)NC(=O)[C@H](CO)NC(=O)CNC(=O)[C@H](CC(N)=O)NC(=O)[C@H](CCCCN)NC1=O [Cyc1-9, C1TPQA TASMK NGSWQ EKKC19] (Ac-CTPQATASMKNGSWQEKKC-OH; disulfide 1-19)
- IC50 [1]: 56.1 ± 3.4 µM

Molecule: C1TPQA TAC8MW DGKWC15 RKKC19 (CTPQATACMWDGKWCRKKC; disulfide 1-19, 8-15; not fully specified (N-terminus); printed as C_1_TPQA TAC_8_MW DGKWC_15_ RKKC_19_) [Cyc2-4, cyc2-1 with K10W]
- Inhibition Rate (%) (sPHGDH (1-307)): 44%

Molecule: C1TPQA TASMK DGKWE RKKC19 (CTPQATASMKDGKWERKKC; disulfide 1-19; not fully specified (N-terminus); printed as C_1_TPQATASMKDGKWERKKC_19_) [Cyc1-1, head-to-tail disulfide-cyclized peptide (C1-C19) from the PHGDH dimerization loop]
- Inhibition Rate (%) (sPHGDH (1-307)): 40%
- inhibitory activity on sPHGDH (in words) (sPHGDH (1-307)): limited activity

Molecule: C1TPQA TESML RGKWE EKKC19 (CTPQATESMLRGKWEEKKC; disulfide 1-19; not fully specified (N-terminus); printed as C_1_TPQA TESML RGKWE EKKC_19_) [Cyc1-4, single disulfide cyclic peptide with A7E and D11R]
- Inhibition Rate (%) (sPHGDH (1-307)): None
- inhibitory activity on sPHGDH (in words) (sPHGDH (1-307)): largely decreased or abolished the activity

Molecule: C1TPQA TKSML DGKWE EKKC19 (CTPQATKSMLDGKWEEKKC; disulfide 1-19; not fully specified (N-terminus); printed as C_1_TPQA TKSML DGKWE EKKC_19_) [Cyc1-3, single disulfide cyclic peptide with substitution A7K]
- Inhibition Rate (%) (sPHGDH (1-307)): 19%
- inhibitory activity on sPHGDH (in words) (sPHGDH (1-307)): largely decreased or abolished the activity

Molecule: C1TPQA TLLMK DGKWE EKKC19 (CTPQATLLMKDGKWEEKKC; disulfide 1-19; not fully specified (N-terminus); printed as C_1_TPQA TLLMK DGKWE EKKC_19_) [Cyc1-8, cyc1-2 with substitution S8L]
- Inhibition Rate (%) (sPHGDH (1-307)): None
- inhibitory activity on sPHGDH (in words) (sPHGDH (1-307)): completely eliminated the activity

Molecule: C1TPQA TLSMK NGSWQ EKKC19 (CTPQATLSMKNGSWQEKKC; disulfide 1-19; not fully specified (N-terminus); printed as C_1_TPQA TLSMK NGSWQ EKKC_19_) [Cyc1-10, cyc1-9 with added A7L]
- Inhibition Rate (%) (sPHGDH (1-307)): None
- inhibitory activity on sPHGDH (in words) (sPHGDH (1-307)): inactive

Other lines, results leading:

- Inhibition Rate (%) (sPHGDH (1-307)): 27%
Molecule: C1TPQA TAC8MK DGKWC15 WKKC19 (CTPQATACMKDGKWCWKKC; disulfide 1-19, 8-15; not fully specified (N-terminus); printed as C_1_TPQA TAC_8_MK DGKWC_15_ WKKC_19_) [Cyc2-5, cyc2-1 with R16W]

- Inhibition rate of sPHGDH enzyme activity (NADH fluorescence) at 50 µM peptide; the pair blocked is the sPHGDH homo-dimer (m1+m1) [2]: 40%
B1: cyclic peptide cyc1-1 (peptide)
peptide: CTPQATASMKDGKWERKKC
modifications: disulfide 1-19; not fully specified (N-terminus); printed as C_1_TPQATASMKDGKWERKKC_19_

- IC50 of inhibition of sPHGDH enzyme activity (NADH fluorescence); the pair blocked is the sPHGDH homo-dimer (m1+m1) [2]: 9.4 µM
B2: double constrained cyclic peptide cyc2-2 (peptide)
peptide: CTPQATACMLDGKWCRKKC
modifications: disulfide 1-19, 8-15; not fully specified (N-terminus); printed as C_1_TPQA TAC_8_ML DGKWC_15_ RKKC_19_

- IC50 of inhibition of sPHGDH enzyme activity (NADH fluorescence); the pair blocked is the sPHGDH homo-dimer (m1+m1) [2]: 15 µM
B3: double constrained cyclic peptide cyc2-6 (peptide)
peptide: CTPQATACMLDGKWCEKKC
modifications: disulfide 1-19, 8-15; not fully specified (N-terminus); printed as C_1_TPQA TAC_8_ML DGKWC_15_ EKKC_19_

- Inhibition rate of sPHGDH enzyme activity (NADH fluorescence) at 50 µM peptide; the pair blocked is the sPHGDH homo-dimer (m1+m1) [2]: 19%
B4: cyclic peptide cyc1-3 (peptide)
peptide: CTPQATKSMLDGKWEEKKC
modifications: disulfide 1-19; not fully specified (N-terminus); printed as C_1_TPQA TKSML DGKWE EKKC_19_

- Inhibition rate of sPHGDH enzyme activity (NADH fluorescence) at 50 µM peptide; the pair blocked is the sPHGDH homo-dimer (m1+m1) [2]: 27%
B5: double constrained cyclic peptide cyc2-5 (peptide)
peptide: CTPQATACMKDGKWCWKKC
modifications: disulfide 1-19, 8-15; not fully specified (N-terminus); printed as C_1_TPQA TAC_8_MK DGKWC_15_ WKKC_19_

- Inhibition rate of sPHGDH enzyme activity (NADH fluorescence) at 50 µM peptide; the pair blocked is the sPHGDH homo-dimer (m1+m1) [2]: 44%
B6: double constrained cyclic peptide cyc2-4 (peptide)
peptide: CTPQATACMWDGKWCRKKC
modifications: disulfide 1-19, 8-15; not fully specified (N-terminus); printed as C_1_TPQA TAC_8_MW DGKWC_15_ RKKC_19_

- IC50 of inhibition of sPHGDH enzyme activity (NADH fluorescence); the pair blocked is the sPHGDH homo-dimer (m1+m1) [2]: 5.6 µM
B7: cyclic peptide cyc1-7 (peptide)
peptide: CTPQATLTMKDGKWEEKKC
modifications: disulfide 1-19; not fully specified (N-terminus); printed as C_1_TPQA TLTMK DGKWE EKKC_19_
